According to patent US20260184768A1:

Assays:
[1] = target: full-length PcrV.6xhis (Pseudomonas aeruginosa); test: SPR (Biacore T200), mAb captured via anti-human Fc, PcrV injected, 25 C
[2] = target: full-length PcrV.6xhis (Pseudomonas aeruginosa); test: SPR (Biacore T200), mAb captured via anti-human Fc, PcrV injected, 37 C

In the case of REGN1932 (antibody), the 90 nM Ag Bound (RU) [1] was -5.9 RU and the 90 nM Ag Bound (RU) [2] was -22.5 RU.
